Assay results taken from the supplement of paper PMC5998384.

How the values were obtained:
HeLa Kyoto [1] = assay: solubility in G1/S (NP-40 vs SDS abundance) (log2 ratio); higher = more soluble; conditions: cell cycle stage: G1/S
HeLa Kyoto [2] = assay: melting temperature (median over replicates), in situ; higher = more thermally stable
HeLa Kyoto [3] = assay: solubility change mitosis vs G1/S (difference of NP-40 vs SDS log2 ratios) (log2 ratio difference); higher = more soluble in mitosis
HeLa Kyoto [4] = assay: thermal stability score vs G1/S (z-score of summed log2 fold changes over temperatures); higher = more thermally stable than in G1/S
[5] = cell cycle stage: early G1 (4.5 h after nocodazole release)
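Throughout, for melting temperature (median over replicates), in situ: HeLa Kyoto cells synchronized by double thymidine or nocodazole block, proteins quantified by TMT10plex mass spectrometry, three independent biological replicates.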
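Throughout, for solubility change mitosis vs G1/S (difference of NP-40 vs SDS log2 ratios): synchronized HeLa Kyoto cells (double thymidine block for G1/S, nocodazole release for mitosis), protein amounts in NP-40 versus SDS lysates quantified by mass spectrometry, three biological replicates.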
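Throughout, for solubility in G1/S (NP-40 vs SDS abundance): HeLa Kyoto cells arrested at G1/S by double thymidine block, proteins quantified by TMT10plex mass spectrometry in mild NP-40 versus SDS extracts, three biological replicates.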
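Throughout, for thermal stability score vs G1/S (z-score of summed log2 fold changes over temperatures): synchronized HeLa Kyoto cells, proteins quantified by TMT10plex mass spectrometry, three biological replicates, mitosis taken 0.5 h after nocodazole release, G1/S directly after double thymidine block.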

Row | Sequence | solubility in G1/S (log2) (HeLa Kyoto [1]) | melting temperature (HeLa Kyoto [2]; cell cycle stage: G1/S) | melting temperature (HeLa Kyoto [2]; cell cycle stage: mitosis) | solubility change mitosis (log2) (HeLa Kyoto [3]) | thermal stability score (HeLa Kyoto [4]; [5]) | thermal stability score (HeLa Kyoto [4]; cell cycle stage: mitosis)
1 | MSGGASATGPRRGPPGLEDTTSKKKQKDRANQESKDGDPRKETGSRYVAQAGLEPLASGDPSASASHAAGITGSRHRTRLFFPSSSGSASTPQEEQTKEGACEDPHDLLATPTPELLLDWRQSAEEVIVKLRVGVGPLQLEDVDAAFTDTDCVVRFAGGQQWGGVFYAEIKSSCAKVQTRKGSLLHLTLPKKVPMLTWPSLLVEADEQLCIPPLNSQTCLLGSEENLAPLAGEKAVPPGNDPVSPAMVRSRNPGKDDCAKEEMAVAADAATLVDEPESMVNLAFVKNDSYEKGPDSVVVHVYVKEICRDTSRVLFREQDFTLIFQTRDGNFLRLHPGCGPHTTFRWQVKLRNLIEPEQCTFCFTASRIDICLRKRQSQRWGGLEAPAARVGGAKVAVPTGPTPLDSTPPGGAPHPLTGQEEARAVEKDKSKARSEDTGLDSVATRTPMEHVTPKPETHLASPKPTCMVPPMPHSPVSGDSVEEEEEEEKKVCLPGFTGLVNLGNTCFMNSVIQSLSNTRELRDFFHDRSFEAEINYNNPLGTGGRLAIGFAVLLRALWKGTHHAFQPSKLKAIVASKASQFTGYAQHDAQEFMAFLLDGLHEDLNRIQNKPYTETVDSDGRPDEVVAEEAWQRHKMRNDSFIVDLFQGQYKSKLVCPVCAKVSITFDPFLYLPVPLPQKQKVLPVFYFAREPHSKPIKFLVSVSKENSTASEVLDSLSQSVHVKPENLRLAEVIKNRFHRVFLPSHSLDTVSPSDTLLCFELLSSELAKERVVVLEVQQRPQVPSVPISKCAACQRKQQSEDEKLKRCTRCYRVGYCNQLCQKTHWPDHKGLCRPENIGYPFLVSVPASRLTYARLAQLLEGYARYSVSVFQPPFQPGRMALESQSPGCTTLLSTGSLEAGDSERDPIQPPELQLVTPMAEGDTGLPRVWAAPDRGPVPSTSGISSEMLASGPIEVGSLPAGERVSRPEAAVPGYQHPSEAMNAHTPQFFIYKIDSSNREQRLEDKGDTPLELGDDCSLALVWRNNERLQEFVLVASKELECAEDPGSAGEAARAGHFTLDQCLNLFTRPEVLAPEEAWYCPQCKQHREASKQLLLWRLPNVLIVQLKRFSFRSFIWRDKINDLVEFPVRNLDLSKFCIGQKEEQLPSYDLYAVINHYGGMIGGHYTACARLPNDRSSQRSDVGWRLFDDSTVTTVDESQVVTRYAYVLFYRRRNSPVERPPRAGHSEHHPDLGPAAEAAASQASRIWQELEAEEEPVPEGSGPLGPWGPQDWVGPLPRGPTTPDEGCLRYFVLGTVAALVALVLNVFYPLVSQSRWR [USP19] | -0.0565 | 51.1 °C | 51 °C | -0.0948 | -0.212 | -0.109
2 | MSGGLLKALRSDSYVELSQYRDQHFRGDNEEQEKLLKKSCTLYVGNLSFYTTEEQIYELFSKSGDIKKIIMGLDKMKKTACGFCFVEYYSRADAENAMRYINGTRLDDRIIRTDWDAGFKEGRQYGRGRSGGQVRDEYRQDYDAGRGGYGKLAQNQ [NCBP2] | -0.118 | 51.4 °C | 51.8 °C | 0.26 | -0.145 | -1.78
3 | MSGNGNAAATAEENSPKMRVIRVGTRKSQLARIQTDSVVATLKASYPGLQFEIIAMSTTGDKILDTALSKIGEKSLFTKELEHALEKNEVDLVVHSLKDLPTVLPPGFTIGAICKRENPHDAVVFHPKFVGKTLETLPEKSVVGTSSLRRAAQLQRKFPHLEFRSIRGNLNTRLRKLDEQQEFSAIILATAGLQRMGWHNRVGQILHPEECMYAVGQGALGVEVRAKDQDILDLVGVLHDPETLLRCIAERAFLRHLEGGCSVPVAVHTAMKDGQLYLTGGVWSLDGSDSIQETMQATIHVPAQHEDGPEDDPQLVGITARNIPRGPQLAAQNLGISLANLLLSKGAKNILDVARQLNDAH [HMBS] | 0.328 | 57.6 °C | 57.3 °C | -0.0671 | -1.68 | -1.79
4 | MSGTNLDGNDEFDEQLRMQELYGDGKDGDTQTDAGGEPDSLGQQPTDTPYEWDLDKKAWFPKITEDFIATYQANYGFSNDGASSSTANVEDVHARTAEEPPQEKAPEPTDARKKGEKRKAESGWFHVEEDRNTNVYVSGLPPDITVDEFIQLMSKFGIIMRDPQTEEFKVKLYKDNQGNLKGDGLCCYLKRESVELALKLLDEDEIRGYKLHVEVAKFQLKGEYDASKKKKKCKDYKKKLSMQQKQLDWRPERRAGPSRMRHERVVIIKNMFHPMDFEDDPLVLNEIREDLRVECSKFGQIRKLLLFDRHPDGVASVSFRDPEEADYCIQTLDGRWFGGRQITAQAWDGTTDYQVEETSREREERLRGWEAFLNAPEANRGLRRSDSVSASERAGPSRARHFSEHPSTSKMNAQETATGMAFEEPIDEKKFEKTEDGGEFEEGASENNAKESSPEKEAEEGCPEKESEEGCPKRGFEGSCSQKESEEGNPVRGSEEDSPKKESKKKTLKNDCEENGLAKESEDDLNKESEEEVGPTKESEEDDSEKESDEDCSEKQSEDGSEREFEENGLEKDLDEEGSEKELHENVLDKELEENDSENSEFEDDGSEKVLDEEGSEREFDEDSDEKEEEEDTYEKVFDDESDEKEDEEYADEKGLEAADKKAEEGDADEKLFEESDDKEDEDADGKEVEDADEKLFEDDDSNEKLFDEEEDSSEKLFDDSDERGTLGGFGSVEEGPLSTGSSFILSSDDDDDDI [HTATSF1] | -0.256 | 47.4 °C | 49.4 °C | -0.0715 | 5.21 | 9.34
